# Laboratory results reported in patent US20050260697.
# Legend:
# [1] = molecular target: human cardiac Troponin-I3 (UniProt P19429)
# [2] = molecular target: human cardiac Troponin-T2 (UniProt P45379)
# Sequence of human cardiac Troponin-I3 (P19429 whole entry, looked up): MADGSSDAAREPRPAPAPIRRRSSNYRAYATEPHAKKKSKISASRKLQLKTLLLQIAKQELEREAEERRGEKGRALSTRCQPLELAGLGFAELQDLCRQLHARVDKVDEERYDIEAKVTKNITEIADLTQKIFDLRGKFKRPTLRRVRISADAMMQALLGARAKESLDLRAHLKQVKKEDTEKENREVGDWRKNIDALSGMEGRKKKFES
substance,measurement,setting,value
calpain-2,"in vitro protease digestion, breakdown products on gels",[1],"human cardiac Troponin-T2 and Troponin-13 were cleaved by calpain-2 and caspase-3 proteases, producing unique breakdown products"
same,stated: cleaves (breakdown bands on a gel),[1],the Tn-I3 (24 kDa) band stays in both Calp-2 lanes (rising amount); arrows A and B mark two faint products below it at the higher-amount lane
same,"in vitro protease digestion, breakdown products on gels",[2],"human cardiac Troponin-T2 and Troponin-13 were cleaved by calpain-2 and caspase-3 proteases, producing unique breakdown products"
same,stated: cleaves (breakdown bands on a gel),[2],"in the two Calpain-2 lanes (rising amount) the Troponin-T2 band at the 30 kDa mark fades and a band b appears between the 15 and 10 kDa marks; arrowheads a, b and c mark products between 15 and 10 kDa beside the higher-amount lane; none of these is in the untreated lane"
